Data: patent US20100279383A1
Several values for one entry are separate records, joined by “and”; a condition that tells them apart may be missing. Equal values may be shown once.

target: anti-Savinase antibody; test: ELISA, anti-Savinase antibody binding of the variant against Savinase as reference

Row | Substance | Antibody binding capacity shown as Delta-binding
1 | Savinase variant S57P + Y167F + R247Q (from UniProt P29600 1-269) (enzyme) | 3 fold
2 | Savinase variant R247Q (from UniProt P29600 1-269) (enzyme) | 2 fold
3 | Savinase variant N18D (from UniProt P29600 1-269) (enzyme) | 2 fold
4 | Savinase variant R247E (from UniProt P29600 1-269) (enzyme) | 2 fold
5 | Savinase variant R247K (from UniProt P29600 1-269) (enzyme) | 2 fold
6 | Savinase variant R170L + Q206E (from UniProt P29600 1-269) (enzyme) | 2.1 fold
7 | Savinase variant N140D + A172D (from UniProt P29600 1-269) (enzyme) | 3.8 fold
8 | Savinase variant R170F (from UniProt P29600 1-269) (enzyme) | 2.4 fold
9 | Savinase variant E136R + N140D (from UniProt P29600 1-269) (enzyme) | 2.1 fold
10 | Savinase variant S57P + R170L + R247Q (from UniProt P29600 1-269) (enzyme) | 2.1 fold and 2 fold
11 | Savinase variant S57P + R170L (from UniProt P29600 1-269) (enzyme) | 2.1 fold

Next, values leading:

Row | Antibody binding capacity shown as Delta-binding | Substance
12 | 4.8 fold | Savinase variant Y167I + R170L + N218S (from UniProt P29600 1-269) (enzyme)
13 | 2.9 fold | Savinase variant D181N (from UniProt P29600 1-269) (enzyme)
14 | 2 fold | Savinase variant R275E (from UniProt P29600 1-269) (enzyme)
15 | 2.8 fold | Savinase variant E136R (from UniProt P29600 1-269) (enzyme)
16 | 2 fold | Savinase variant R247H (from UniProt P29600 1-269) (enzyme)
17 | 3.2 fold | Savinase variant Y167I + R170L + A194P + N218S (from UniProt P29600 1-269) (enzyme)
